These are literature values, as cited in PMC13681993.

For this data set, the target named is GAB1 pY627 (Homo sapiens) (UniProt Q13480). The data set can be described thus: fluorescence polarization. A general note: Fluorescence polarisation rises when a labelled molecule tumbles more slowly, as on binding a larger partner.

Take PTPN11 N-SH2 (from UniProt Q06124): the Kd was 287 nM.

As usually defined, the Kd is the constant that tells how readily two partners part at equilibrium.
